Patent publication US20250084176A1 (F STAR BETA, published 2025)

Legend:
[1] = target: T1, cCD137-mFc-Avi (cynomolgus; mouse, one biotin on the Avi sequence of each monomer (BirA); unbiotinylated in the SPR of Example 5.6); experiment: SPR (Biacore), mAb2 captured by anti-human Fab, antigen in solution, 1:1 Langmuir
T1 construct: also called cyno CD137-mFc-Avi; dimeric cynomolgus CD137; not shown: mouse IgG2a Fc domain (mIgG2a Fc)
T1 chain: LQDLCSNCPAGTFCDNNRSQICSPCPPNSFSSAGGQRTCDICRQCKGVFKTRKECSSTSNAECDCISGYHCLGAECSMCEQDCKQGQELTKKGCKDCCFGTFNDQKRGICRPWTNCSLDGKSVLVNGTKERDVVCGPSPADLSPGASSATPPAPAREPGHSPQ
Description: (§1) An anti-human Fab capture antibody was immobilised on all four flow cells of a CM5 series S chip (GE Healthcare #BR-1005-30) to an average surface density of 6000 RU following the manufacturer's recommendations (GE Healthcare, human Fab capture Kit, #28958325). IEach mAb² was captured to approximately 150 RU by injecting a 3 μg/ml solution of mAb² diluted in HBS-EP+ buffer (GE Healthcare #BR1006-69) for 60 seconds at 30 μl/min. Then different concentrations of human, cyno or mouse CD137 antigen (unbiotinylated human, cyno or mouse CD137-mFc-Avi or human CD137-Avi-His) in HBS-EP+ buffer were flowed over the chip for 3 min at 60 μl/min and then allowed to dissociate for 10 minutes. After each antigen concentration the chip was regenerated by infecting 10 mM glycine pH 2.1 at a flow rate of 30 μl/min for 30 seconds. Buffer HBS-EP+ was injected before the highest concentration of antigen and after the lowest concentration of antigen for reference subtraction, and one of the concentrations at random was repeated twice. The binding kinetics were fit with a 1:1 Langmuir model to generate equilibrium binding constants (KD) for each sample. Data analysis was performed with BiaEvaluation software version 3.2.

[2] = target: T2, hCD137-mFc-Avi (human; mouse, UniProt Q07011 24-186, one biotin on the Avi sequence of each monomer (BirA); unbiotinylated in the SPR of Example 5.6); experiment: as above
T2 construct: Made in-house in HEK293-6E; also called human CD137-mFc-Avi; dimeric human CD137; not shown: mouse IgG2a Fc domain (mIgG2a Fc)
Description: as §1

[3] = target: T3, human CD137, full length, on cells (human, UniProt Q07011 24-255); experiment: cell-based or functional assay
[4] = target: T3, human CD137, full length, on cells; experiment: flow cytometry on CD137int DO11.10 cells (ABC 404,597), anti-human IgG-PE detection, geometric mean PE
Description: (§2) A range of DO11.10 cells expressing different levels of CD137 were produced as described in Example 3.5. To determine the relative expression of CD137 in each cell line, the antibody binding capacity (ABC) was determined according to manufacturer's protocol (Quantum™ Simply Cellular® #816 Bangs Labs).
(§3) All antibodies tested were diluted in FACS buffer in 120 μl. DO11.10 cells were then centrifuged, supernatant removed and cells resuspended in 100 μl of each antibody dilution and incubated at 4° C. for 45 min. Cells were washed twice by centrifugation with 150 μl FACS buffer, resuspended in 100 μl containing goat anti-human IgG (γ-chain specific) F (ab′) 2 fragment-R-Phycoerythrin antibody (Sigma, P8047) diluted 1:1000 in FACS buffer and incubated at 4° C. for 45 min. The cells were washed once with 150 μl FACS buffer and then with 150 μl DPBS, resuspended in 150 μl DPBS containing DAPI (Biotium, 40043) at 1:10.000 and read on the BDCantoll or iQue (Intellicyt). Data was analysed using FlowJo v10 to determine the signal geometric mean for PE for live cells in each well.

[5] = target: T3, human CD137, full length, on cells; experiment: cell-based or functional assay; remark: listed apart in the source
[6] = target: T3, human CD137, full length, on cells; experiment: flow cytometry on CD137low DO11.10 cells (ABC 14,208), anti-human IgG-PE detection, geometric mean PE
Description: as §2, §3

[7] = target: T3, human CD137, full length, on cells; experiment: cell-based or functional assay; remark: listed apart in the source
[8] = target: T3, human CD137, full length, on cells; experiment: cell-based or functional assay; remark: listed apart in the source
[9] = target: T3, human CD137, full length, on cells; experiment: flow cytometry on CD137int/low DO11.10 cells (ABC 143,065), anti-human IgG-PE detection, geometric mean PE
Description: as §2, §3

[10] = target: T3, human CD137, full length, on cells; experiment: flow cytometry on CD137high DO11.10 cells (ABC 1,206,283), anti-human IgG-PE detection, geometric mean PE
Description: as §2, §3

T3 sequence (Q07011 24-255): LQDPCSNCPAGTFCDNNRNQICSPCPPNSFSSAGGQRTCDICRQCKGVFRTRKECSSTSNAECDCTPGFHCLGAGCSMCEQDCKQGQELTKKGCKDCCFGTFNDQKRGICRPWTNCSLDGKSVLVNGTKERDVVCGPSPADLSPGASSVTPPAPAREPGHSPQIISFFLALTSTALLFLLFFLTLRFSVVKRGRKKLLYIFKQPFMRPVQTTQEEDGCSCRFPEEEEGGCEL
T2 sequence (Q07011 24-186): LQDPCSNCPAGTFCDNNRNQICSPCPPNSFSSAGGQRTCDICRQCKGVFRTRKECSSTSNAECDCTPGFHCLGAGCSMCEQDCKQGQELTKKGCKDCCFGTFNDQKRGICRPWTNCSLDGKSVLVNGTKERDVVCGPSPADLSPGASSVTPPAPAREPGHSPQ

B1: FS22-172/HelD1.3 (bispecific antibody, human IgG1, kappa)
heavy: QVQLQESGPGLVRPSQTLSLTCTVSGSTFSGYGVNWVRQPPGRGLEWIGMIWGDGNTDYNSALKSRVTMLVDTSKNQFSLRLSSVTAADTAVYYCARERDYRLDYWGQGSLVTVSSASTKGPSVFPLAPSSKSTSGGTAALGCLVKDYFPEPVTVSWNSGALTSGVHTFPAVLQSSGLYSLSSVVTVPSSSLGTQTYICNVNHKPSNTKVDKKVEPKSCDKTHTCPPCPAPELLGGPSVFLFPPKPKDTLMISRTPEVTCVVVDVSHEDPEVKFNWYVDGVEVHNAKTKPREEQYNSTYRVVSVLTVLHQDWLNGKEYKCKVSNKALPAPIEKTISKAKGQPREPQVYTLPPSRDELRKYYPPYNQVSLTCLVKGFYPSDIAVEWESNGQPENNYKTTPPVLDSDGSFFLYSKLTVGADRWLEGNVFSCSVMHEALHNHYTQKSLSLSPG
light: DIQMTQSPASLSASVGETVTITCRASGNIHNYLAWYQQKQGKSPQLLVYNAKTLADGVPSRFSGSGSGTQYSLKINSLQPEDFGSYYCQHFWSTPRTFGGGTKLEIKRTVAAPSVFIFPPSDEQLKSGTASVVCLLNNFYPREAKVQWKVDNALQSGNSQESVTEQDSKDSTYSLSSTLTLSKADYEKHKVYACEVTHQGLSSPVTKSFNRGEC
notes: Mock mAb^2, IgG1 without LALA
What does the source list for B1?
Kd [1]: 203 nM; Kd [2]: 52 nM; NF-kB luciferase reporter (HEK.FRT.luc.hCD137), signal with against without Protein L [3]: ≥ 10 fold

B2: G1-AA/20H4.9 (antibody, V domains shown)
VH: QVQLQQWGAGLLKPSETLSLTCAVYGGSFSGYYWSWIRQSPEKGLEWIGEINHGGYVTYNPSLESRVTISVDTSKNQFSLKLSSVTAADTAVYYCARDYGPGNYDWYFDLWGRGTLVTVSS
VL: EIVLTQSPATLSLSPGERATLSCRASQSVSSYLAWYQQKPGQAPRLLIYDASNRATGIPARFSGSGSGTDFTLTISSLEPEDFAVYYCQQRSNWPPALTFGGGTKVEIKR
Which results are given for B2?
EC50 (read off the curve) [4]: ~0.1 nM; hIL-2 release, primary human CD8+ T cells, 20H4.9 (row without XL): EC50 [5]: 0.89 nM; hIL-2 release, primary human CD8+ T cells, 20H4.9 + XL (anti-hCH2): EC50 [5]: 0.5 nM; EC50 (read off the curve) [6]: ~0.1 nM; IL-2 release, DO11.10.hCD137 T cell activation assay: EC50 [7]: 0.26 nM; IL-2 release, human CD137 DO11.10 T cell activation assay, Protein L: +XL EC50 [8]: 0.82 nM; EC50 (read off the curve) [9]: ~0.1 nM

B3: FS22-172-003-AA/HelD1.3 (bispecific antibody, human IgG1, kappa, L234A L235A)
heavy: QVQLQESGPGLVRPSQTLSLTCTVSGSTFSGYGVNWVRQPPGRGLEWIGMIWGDGNTDYNSALKSRVTMLVDTSKNQFSLRLSSVTAADTAVYYCARERDYRLDYWGQGSLVTVSSASTKGPSVFPLAPSSKSTSGGTAALGCLVKDYFPEPVTVSWNSGALTSGVHTFPAVLQSSGLYSLSSVVTVPSSSLGTQTYICNVNHKPSNTKVDKKVEPKSCDKTHTCPPCPAPEAAGGPSVFLFPPKPKDTLMISRTPEVTCVVVDVSHEDPEVKFNWYVDGVEVHNAKTKPREEQYNSTYRVVSVLTVLHQDWLNGKEYKCKVSNKALPAPIEKTISKAKGQPREPQVYTLPPSRDELPYIIPPYNQVSLTCLVKGFYPSDIAVEWESNGQPENNYKTTPPVLDSDGSFFLYSKLTVGADRWLEGNVFSCSVMHEALHNHYTQKSLSLSPG
light: DIQMTQSPASLSASVGETVTITCRASGNIHNYLAWYQQKQGKSPQLLVYNAKTLADGVPSRFSGSGSGTQYSLKINSLQPEDFGSYYCQHFWSTPRTFGGGTKLEIKRTVAAPSVFIFPPSDEQLKSGTASVVCLLNNFYPREAKVQWKVDNALQSGNSQESVTEQDSKDSTYSLSSTLTLSKADYEKHKVYACEVTHQGLSSPVTKSFNRGEC
notes: Mock mAb^2, IgG1 with LALA
What does the source list for B3?
EC50 (read off the curve) [4]: ~0.5 nM; EC50 (read off the curve) [10]: ~0.5 nM; EC50 (read off the curve) [9]: ~0.8 nM

B4: G1-AA/HelD1.3 (antibody, human IgG1, kappa, L234A L235A, V domains shown)
VH: QVQLQESGPGLVRPSQTLSLTCTVSGSTFSGYGVNWVRQPPGRGLEWIGMIWGDGNTDYNSALKSRVTMLVDTSKNQFSLRLSSVTAADTAVYYCARERDYRLDYWGQGSLVTVSS
VL: DIQMTQSPASLSASVGETVTITCRASGNIHNYLAWYQQKQGKSPQLLVYNAKTLADGVPSRFSGSGSGTQYSLKINSLQPEDFGSYYCQHFWSTPRTFGGGTKLEIKR
notes: Anti-hen egg lysozyme human IgG1 with the LALA mutation; also called G1-AA/HeID1.3; G1AA/HeID1.3 mAb (with LALA)
Does B4 bind [6]?
Result: no binding
